Assay results taken from US20090226429A1 (Human Genome Sciences, published 2009).

Experiments:
TR4:Fc receptor = target: T1, TR4:Fc receptor (human, UniProt O00220 109-240); assay: SPR (BIAcore 2000), TR4:Fc amine-coupled on CM5 chip, IgG1 as analyte, double reference subtraction, 1:1 Langmuir fit, 25 C
T1 construct: also called TR4-Fc fusion protein; not shown: Fc region
T1 chain: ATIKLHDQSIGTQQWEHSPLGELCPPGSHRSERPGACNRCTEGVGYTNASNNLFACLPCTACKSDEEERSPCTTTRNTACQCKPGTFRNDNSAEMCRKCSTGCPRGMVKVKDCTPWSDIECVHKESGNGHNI
Experimental: The optimal pH for this coupling was analyzed using preconcentration experiments ranging from pH 4-7 and was determined to be pH 4.0 for both the TR4 and the TR2 receptor. Amine coupling was used to covalently bind each receptor (fc) to the dextran matrix on the CM5 sensor chip. The immobilization experiment was performed using the manual injection mode. The entire immobilization experiment was performed at 5 μL/min. A 3-minute injection of EDC/NHS (1:1) was applied to each flow cell to active esters. A target level of ˜200RU was set as the goal for all each flow cell. Fc-fusion receptors, TR4 and TR2 at 5 μg/mL, were immobilized onto individual flow cells of a sensor chip. The amount applied varied from 8-14 μL. A 3-minute ethanolamine injection completed the immobilization experiment by inactivating the esters.
The kinetics cycles were performed as follows: The flow rate for the entire cycle was 25 μL/minute with the flow path including both the control (TR2) and experimental (TR4) flow cell at all times. A 1-minute buffer injection was applied to stabilize the baseline. The purified antibody (IgG1 antibody comprising the VH and VL domains of each of the T1014A04, T1014G03, T1014F08, and T14G04 scFvs) was diluted from 10 μg/mL (65 nM) to 0.115 μg/mL (0.75 nM) in running buffer and tested in duplicate. Each concentration was in contact with the control (TR2) and the experimental (TR4) flow cell during a 4-minute association and a 10-minute dissociation phase. Regeneration was performed using 25 mM NaOH from 5-12 μL depending on the sample concentration.
A double-reference subtraction was performed, which refers to the control flow cell subtraction for every cycle, in addition to a buffer cycle subtraction. The 1:1 Langmuir model was used for all evaluation fitting.

BLyS = target: T2, BLyS (human, UniProt Q9Y275 134-285, limits assumed); assay: specificity phage ELISA, antigen coated at 1 ug/ml
T2 construct: Unrelated control antigen in the specificity phage ELISA
T2 sequence (Q9Y275 134-285 limits assumed): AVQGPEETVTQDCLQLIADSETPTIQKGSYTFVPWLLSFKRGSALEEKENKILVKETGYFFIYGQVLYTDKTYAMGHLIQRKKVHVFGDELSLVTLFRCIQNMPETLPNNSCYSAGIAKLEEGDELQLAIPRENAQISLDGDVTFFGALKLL
Experimental: (§1) Flexible 96-well plates (Falcon) were coated overnight at 4° C. with each antigen (1 μg/ml). All antigens were coated in PBS. After coating, the solutions were removed from the wells, and the plates were blocked for 1 hour at room temperature in MPBS. The plates were washed 3 times with PBS and then 50 μl of pre-blocked phage was added to each well. The plates were incubated at room temperature for 1 hour and then washed with 3 changes of PBST followed by 3 changes of PBS.
(§2) To each well, 50 μl of an anti-M13-HRP conjugate (Pharmacia) at a 1 in 5000 dilution in MPBS was added and the plates incubated at room temperature for 1 hour. Each plate was washed three times with PBST followed by three times with PBS.
(§3) Fifty μl of TMB substrate was then added to each well, and incubated at room temperature for 30 minutes or until colour development. The reaction was stopped by the addition of 25 μl of 0.5 M H₂SO₄. The signal generated was measured by reading the absorbance at 450 nm (A₄₅₀) using a microtitre plate reader (Bio-Rad 3550).

TR10 = target: T3, TR10 (human, UniProt Q9UBN6 56-204, limits assumed); assay: specificity phage ELISA, antigen coated at 1 ug/ml
T3 construct: Antigen coated in the specificity phage ELISA; also called TRAIL-R4; DcR2
T3 sequence: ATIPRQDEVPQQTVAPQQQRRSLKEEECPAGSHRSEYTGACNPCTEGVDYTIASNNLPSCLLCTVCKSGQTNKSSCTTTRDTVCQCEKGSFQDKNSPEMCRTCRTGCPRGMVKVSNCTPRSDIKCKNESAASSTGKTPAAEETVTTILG
Experimental: as §1, §2, §3

TR7 = target: T4, TR7 (human, UniProt O14763 52-184, limits assumed); assay: specificity phage ELISA, antigen coated at 1 ug/ml
T4 construct: Antigen coated in the specificity phage ELISA; also called TRAIL-R2; DR5
Experimental: as §1, §2, §3

TR5 = target: T5, TR5 (human, UniProt O14798 30-242); assay: specificity phage ELISA, antigen coated at 1 ug/ml
T5 construct: Antigen coated in the specificity phage ELISA; also called TRAIL-R3; DcR1
T5 chain: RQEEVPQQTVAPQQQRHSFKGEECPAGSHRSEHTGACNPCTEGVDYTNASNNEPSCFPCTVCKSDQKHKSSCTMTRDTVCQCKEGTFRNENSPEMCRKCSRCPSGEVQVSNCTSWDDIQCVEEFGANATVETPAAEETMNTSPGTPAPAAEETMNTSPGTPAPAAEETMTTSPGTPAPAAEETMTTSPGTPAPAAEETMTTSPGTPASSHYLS
Experimental: as §1, §2, §3

| Binder | Kd (TR4:Fc receptor) [nM] | binding result (BLyS) | binding result (TR10) | binding result (TR7) | binding result (TR5) |
| --- | --- | --- | --- | --- | --- |
| IgG1 antibody comprising the VH and VL domains of the T1014A04 scFv (antibody, V domains shown, Whole IgG1; also called IgG1 format of T1014A04) VH: EVQLVQSGADVKRPGASVKVSCKISGDSFNAYFIHWVRQAPGQGLEWMGWFNPDSGTADSAQKFHGRVTMTRDTSSSTAFLELSRLRSDDTAVYYCVRQHRGNTFAPWGRGTMVTVSS VL: QSVLTQPPSASGSPGQSVTISCTGTTSDVGGYNYVSWYQQHPGKAPKLMIYGVNQRPSGVPDRFSGSKSGNTASLTVSGLQAEDEADYYCSSYAGSNNWVFGGGTKLTVLG | 0.468 | – | – | – | – |
| IgG1 antibody comprising the VH and VL domains of the T1014G04 scFv (antibody, V domains shown, Whole IgG1; also called T14G04) VH: EVQLVQSGADVKRPGASVKVSCKISGDSFTAYFIHWVRQAPGQGLEWMGWFNPDSGTADSAQKFHGRVTMTRDTSSSTAFLELSRLRSDDTAVYYCVRQHRGNTFAPWGRGTLVTVSS VL: QPVLTQPPSASGSPGQSVTISCTGTSSDVGSYEYVSWYQQHPGKAPRLMISEVNKRPSGVPNRFSGSKSGNTASLTVSGLQADDEADYYCSSYAGSNNWVFGGGTKVTVLG | 0.194 | – | – | – | – |
| scFv T1014B11 (scFv) scFv: EVQLVQSGAEVKKPGASVKVSCKISGDSFTAYFIHWLRQAPGEGLEWMGWFNPISGTAGSPQKFHGRVAMTRDTSISTAYMELTRLASDDTAIYYCARQHHSNTFDPWGQGTLVTVSSGGGGSGGGGSGGGGSAQSALTQPASVSGSPGQSITISCTGTNSDVGGYNYVSWYQQHPGKAPKLMIYEVNNRPSGVSNRFSGSKSGNTASLTISGLQADDEADYYCSSYTTSNTWVFGGGTKLTVLG | – | no binding | no binding | no binding | no binding |
| scFv T1014A04 (scFv) scFv: EVQLVQSGADVKRPGASVKVSCKISGDSFNAYFIHWVRQAPGQGLEWMGWFNPDSGTADSAQKFHGRVTMTRDTSSSTAFLELSRLRSDDTAVYYCVRQHRGNTFAPWGRGTMVTVSSGGGGSGGGGSGGGGSAQSVLTQPPSASGSPGQSVTISCTGTTSDVGGYNYVSWYQQHPGKAPKLMIYGVNQRPSGVPDRFSGSKSGNTASLTVSGLQAEDEADYYCSSYAGSNNWVFGGGTKLTVLG | – | no binding | no binding | no binding | no binding |
| scFv T1014G04 (scFv) scFv: EVQLVQSGADVKRPGASVKVSCKISGDSFTAYFIHWVRQAPGQGLEWMGWFNPDSGTADSAQKFHGRVTMTRDTSSSTAFLELSRLRSDDTAVYYCVRQHRGNTFAPWGRGTLVTVSSGGGGSGGGGSGGGGSAQPVLTQPPSASGSPGQSVTISCTGTSSDVGSYEYVSWYQQHPGKAPRLMISEVNKRPSGVPNRFSGSKSGNTASLTVSGLQADDEADYYCSSYAGSNNWVFGGGTKVTVLG | – | no binding | no binding | no binding | no binding |
| IgG1 antibody comprising the VH and VL domains of the T1014G03 scFv (antibody, V domains shown, Whole IgG1) VH: EVQLVQSGAEVKMPGASVKLSCRVSGDTFTAYFIHWVRQAPGQGLEWMGWFNPISGTAGSAEKFRGRVAMTRDTSISTAYMELNRLTFDDTAVYYCARQHRGNTFDPWGQGTLVTVSS VL: QSALTQPASVSGSPGQSITISCTGTSSDIGAYKYVSWYQQHPGKAPKLVIYEVSNRPSGVSSRFSGSKSGQTASLTISGLQADDEADYYCNSYQGYNTWVFGGGTKVTVLG | 0.554 | – | – | – | – |
| scFv T1014G03 (scFv) scFv: EVQLVQSGAEVKMPGASVKLSCRVSGDTFTAYFIHWVRQAPGQGLEWMGWFNPISGTAGSAEKFRGRVAMTRDTSISTAYMELNRLTFDDTAVYYCARQHRGNTFDPWGQGTLVTVSSGGGGSGGGGSGGGGSAQSALTQPASVSGSPGQSITISCTGTSSDIGAYKYVSWYQQHPGKAPKLVIYEVSNRPSGVSSRFSGSKSGQTASLTISGLQADDEADYYCNSYQGYNTWVFGGGTKVTVLG | – | no binding | no binding | no binding | no binding |
| scFv T1014F08 (scFv) scFv: EVQLVQSGAEVKKPGASVKLSCRVSGDTFTAYFIHWVRQAPGQGPEWMGWFNPISGTAGSAARFRGRVAMTRDTSISTAYMELNRLTFDDTAVYYCARQHRGNTFDPWGKGTLVTVSSGGGGSGGGGSGGGGSALPVLTQPPSASGSPGQSVTISCTGTSSDVGGYKYVSWYQQHPGKAPKLMIYEVSMRPSGVPDRFSGSKSGNTASLTVSGLQAEDEADYYCASYAGSNNWVFGGGTKLTVLG | – | no binding | no binding | no binding | no binding |
